Measurements published in paper PMC7156504, “An in vivo platform to select and evolve aggregation-resistant proteins” (Nature Communications, 2020).
Where a chain is given by its changes, count along the chain named.

B1: evolved scFvWFL variant 59 reformatted as IgG1 (antibody, V domains shown)
VH: QVQLVQSGAEVKKPGSSVKVSCKASGGTFRFGAFTWARQAPGQGLEWMGGIIPIFGLTNLAQNFQGRATITADESTSTVYMELSSLRSEDTAVYYCARSSRIYDLNPSLTAYYDMDVWGQGTMVTVSS
VL: QSVLTQPPSVSAAPGQKVTISCSGSSSDIGNNYVSWYQQLPGTAPKLLTYDNNKRPSGIPGRFSGSKSGTSATLGITGLQTGDEADYYCGTWDSSLSAWVFGGGTKLTVL
notes: human IgG1 heavy chain constant region of the TM-YTE IgG1 expression vector; human light chain constant region of the expression vector; IgG1, TM-YTE backbone; selected by the TPBLA from an error-prone PCR library of scFvWFL; source: HEK293/EBNA, co-transfected, purified from the culture medium (Protein A)
B2: evolved scFvWFL variant 126 reformatted as IgG1 (antibody, V domains shown)
VH: B1 VH with R30W, A37V, I51F, F55S, A68V
VL: B1 VL with T49I, G61D
notes: as for B1
B3: evolved scFvWFL variant 16 reformatted as IgG1 (antibody, V domains shown)
VH: B1 VH with R30W, F31S, A37V, F55S, A68V, V79A
VL: B1 VL with T49I, G61D, F101I
notes: as for B1
B4: MEDI578 (the parent antibody prior to affinity maturation into MEDI1912) (antibody, V domains shown)
VH: QVQLVQSGAEVKKPGSSVKVSCKASGGTFSTYGISWVRQAPGQGLEWMGGIIPIFDTGNSAQSFQGRVTITADESTSTAYMELSSLRSEDTAVYYCARSSRIYDLNPSLTAYYDMDVWGQGTMVTVSS
VL: B1 VL with D28N, T49I, G61D
notes: VH of MEDI578; VL of MEDI578; The entry is printed as 5J7Z in the methods; also called IgG_(MEDI578)
B5: evolved scFvWFL variant 11 reformatted as IgG1 (antibody, V domains shown)
VH: B1 VH with Q6R, R30W, A37V, A68V, T110A
VL: B1 VL with S21P, T49I, G61D, I76V
notes: as for B1
B6: evolved scFvWFL variant 37 reformatted as IgG1 (antibody, V domains shown)
VH: B1 VH with Q6P, R30W, A37V, I54T, A68V
VL: B1 VL with S25P, T49I, G61D
notes: retains W35, F36 and L64; human IgG1 heavy chain constant region of the TM-YTE IgG1 expression vector; human light chain constant region of the expression vector; IgG1, TM-YTE backbone; retains the original WFL residues (W35, F36 and L64); source: HEK293/EBNA, co-transfected, purified from the culture medium (Protein A)
B7: evolved scFvWFL variant 139 reformatted as IgG1 (antibody, V domains shown)
VH: B1 VH with S25G, R30W, F31S, A37V, A68V, I102T
VL: B1 VL with T49I, G61D, S71T
notes: human IgG1 heavy chain constant region of the TM-YTE IgG1 expression vector; human light chain constant region of the expression vector; IgG1, TM-YTE backbone; the best performing variant of the screen; source: HEK293/EBNA, co-transfected, purified from the culture medium (Protein A)
B8: evolved scFvWFL variant 130 reformatted as IgG1 (antibody, V domains shown)
VH: B1 VH with T28A, R30W, A37V, I52T, L57H, A68V
VL: B1 VL with T49I, G61D
notes: as for B1
B9: DyLight650-labelled IgGWFL (antibody, V domains shown)
VH: B1 VH with R30W, A37V, A68V
VL: B1 VL with T49I, G61D
notes: as the VH of m1; human IgG1 heavy chain constant region of the TM-YTE IgG1 expression vector; as the VL of m1; human light chain constant region of the expression vector; same protein as m1; also called labelled MEDI1912; source: HEK293/EBNA, co-transfected, purified from the culture medium (Protein A); labelled with DyLight650
B10: evolved scFvWFL variant 72 reformatted as IgG1 (antibody, V domains shown)
VH: B1 VH with F29S, R30W, A37V, I51T, A68V, E89D, D116G
VL: B1 VL with N31D, T49I, G61D
notes: as for B1
B11: evolved scFvWFL variant 176 reformatted as IgG1 (antibody, V domains shown)
VH: B1 VH with Q6R, R30W, A37V, A68V
VL: B1 VL with T49I, G61D
notes: as for B1
B12: evolved scFvWFL variant 128 reformatted as IgG1 (antibody, V domains shown)
VH: B1 VH with R30W, A37V, A68V, Y112D
VL: B1 VL with K17E, L40P, T43A, T49I, G61D
notes: as for B6
B13: IgG STT (scFv STT) (antibody, V domains shown)
VH: B1 VH with R30S, F31T, A37V, A68V
VL: B1 VL with T49I, G61D

biological target: T1, biotinylated nerve growth factor (NGF) (Homo sapiens, UniProt P01138, biotin (biotinylated in-house, sites not stated)); assay: AlphaScreen or HTRF; epitope competition assay: biotinylated NGF (detected by streptavidin Europium cryptate) and DyLight650-labelled IgGWFL with increasing concentrations of test IgG; relative affinity; conditions: both partners purified
T1 construct: nerve growth factor (NGF), human; R&D Systems 256-GF; also called human nerve growth factor; source: bought: R&D Systems (256-GF), biotinylated in-house
T1 sequence (P01138 122-241): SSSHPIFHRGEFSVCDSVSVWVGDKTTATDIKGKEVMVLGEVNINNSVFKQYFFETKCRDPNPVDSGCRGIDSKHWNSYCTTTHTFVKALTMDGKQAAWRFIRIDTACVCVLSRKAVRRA

Binding result, binds:
B1
B2
B3
B4
B5
B6
B7
B8
B9
B10
B11
B12

biological target: T1, biotinylated nerve growth factor (NGF); assay: not given; conditions: not given

Binding result, binds:
B13
